According to patent US20060286092A1:

Tests used:
[1] = molecular target: B7-H1 (full-length, expressed on BHK cells transfected with pZMP21 hB7-H1) (human) (UniProt Q9NZQ7); experiment: flow cytometry (PE probe vs anti-CD8 APC) on BHK cells transfected with full-length B7-H1; no competitor
[2] = molecular target: B7-H1 (full-length, expressed on BHK cells transfected with pZMP21 hB7-H1) (human) (UniProt Q9NZQ7); experiment: flow cytometry on B7-H1-transfected BHK cells; competitor: excess unlabeled BTLA/mFc2
[3] = molecular target: B7-H1 (full-length, expressed on BHK cells transfected with pZMP21 hB7-H1) (human) (UniProt Q9NZQ7); experiment: flow cytometry on B7-H1-transfected BHK cells; competitor: excess unlabeled NKp30/mFc2
[4] = molecular target: B7-H1 (full-length, expressed on BHK cells transfected with pZMP21 hB7-H1) (human) (UniProt Q9NZQ7); experiment: flow cytometry on B7-H1-transfected BHK cells; competitor: excess unlabeled BTLA/mFc2 (row printed a second time)

Chain of UniProt Q9NZQ7 (Q9NZQ7 19-290): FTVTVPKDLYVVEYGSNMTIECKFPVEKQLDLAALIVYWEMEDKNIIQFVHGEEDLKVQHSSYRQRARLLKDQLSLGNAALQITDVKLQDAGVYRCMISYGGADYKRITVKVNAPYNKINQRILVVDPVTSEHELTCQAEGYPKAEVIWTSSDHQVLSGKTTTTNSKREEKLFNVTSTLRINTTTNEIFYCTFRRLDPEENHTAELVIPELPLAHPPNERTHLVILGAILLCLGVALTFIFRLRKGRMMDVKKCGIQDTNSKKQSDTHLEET

% double positive [1] [%] | % double positive [2] [%] | % double positive [3] [%] | % double positive [4] [%] | Substance
1.96 |  |  |  | BTLA/mFc2 (Fc fusion)
1.91 |  |  |  | Zenon control
33.7 | 28.8 | 31.4 | 28.8 | PD-1/Fc (Fc fusion)
